Results: article doi:10.1101/2020.01.22.915298 (bioRxiv, 2020)

Experiments:
[1] = molecular target: Heparin-Binding EGF-like Growth Factor, recombinant (UniProt Q99075); assay: SPR
[2] = molecular target: diphtheria toxin receptor-binding fragment (lysosomal targeting moiety) (Corynebacterium diphtheriae, UniProt P00588 418-567); assay: SPR
diphtheria toxin receptor-binding fragment (lysosomal targeting moiety), sequence (P00588 418-567): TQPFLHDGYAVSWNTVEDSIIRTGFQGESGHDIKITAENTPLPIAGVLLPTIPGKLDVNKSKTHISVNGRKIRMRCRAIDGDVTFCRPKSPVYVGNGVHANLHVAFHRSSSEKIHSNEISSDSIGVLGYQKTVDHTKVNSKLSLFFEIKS

Molecule “LTM-TPP1 (TPP1 with an N-terminal LTM fusion)” has a Kd [1] of 19.1 nM.

B1: Heparin-Binding EGF-like Growth Factor, recombinant (receptor, UniProt Q99075 63-148, looked up)
chain: DLQEADLDLLRVTLSSKPQALATPNKEEHGKRKKKGKGLGKKRDPCLRKYKDFCIHGECKYVKELRAPSCICHPGYHGERCHGLSL
B1 was tested, and the Kd [2] was 13.3 nM.
